For this data set, the target named is T1, B(AF647)CDX2 (Homo sapiens, UniProt O15315;O43502;O75771;O43543 1-345+=GGGSGGGDSLEFIASKLA;1-376;1-328;1-280, internal_change).
T1 sequence 1: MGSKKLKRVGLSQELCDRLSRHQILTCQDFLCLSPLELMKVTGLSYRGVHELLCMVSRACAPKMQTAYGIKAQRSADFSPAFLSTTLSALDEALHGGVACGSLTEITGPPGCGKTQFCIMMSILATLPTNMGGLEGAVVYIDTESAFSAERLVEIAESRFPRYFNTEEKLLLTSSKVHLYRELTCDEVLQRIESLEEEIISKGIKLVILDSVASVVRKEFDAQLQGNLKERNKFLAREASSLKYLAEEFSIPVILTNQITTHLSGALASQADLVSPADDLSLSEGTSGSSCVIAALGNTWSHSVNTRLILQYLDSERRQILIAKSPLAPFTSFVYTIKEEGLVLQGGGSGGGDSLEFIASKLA
T1 sequence 2: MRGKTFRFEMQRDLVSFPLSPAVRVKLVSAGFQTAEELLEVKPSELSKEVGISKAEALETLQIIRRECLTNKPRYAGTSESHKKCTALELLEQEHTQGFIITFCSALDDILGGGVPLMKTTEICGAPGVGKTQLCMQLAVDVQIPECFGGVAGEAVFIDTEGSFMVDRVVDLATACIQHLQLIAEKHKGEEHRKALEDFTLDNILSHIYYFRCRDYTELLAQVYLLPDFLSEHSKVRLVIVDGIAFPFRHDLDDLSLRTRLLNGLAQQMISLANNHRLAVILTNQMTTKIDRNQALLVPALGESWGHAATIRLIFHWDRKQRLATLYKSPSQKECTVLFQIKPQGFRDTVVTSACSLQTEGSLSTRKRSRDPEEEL
T1 sequence 3: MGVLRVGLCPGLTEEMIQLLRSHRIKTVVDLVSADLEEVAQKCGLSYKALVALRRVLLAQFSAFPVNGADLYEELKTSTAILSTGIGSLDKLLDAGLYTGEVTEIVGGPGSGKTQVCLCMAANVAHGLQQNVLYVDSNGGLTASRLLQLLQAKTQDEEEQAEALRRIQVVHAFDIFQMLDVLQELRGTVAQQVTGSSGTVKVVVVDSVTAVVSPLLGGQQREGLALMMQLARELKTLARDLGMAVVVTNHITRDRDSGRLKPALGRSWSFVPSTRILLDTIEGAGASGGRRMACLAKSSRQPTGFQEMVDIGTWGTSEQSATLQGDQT
T1 sequence 4: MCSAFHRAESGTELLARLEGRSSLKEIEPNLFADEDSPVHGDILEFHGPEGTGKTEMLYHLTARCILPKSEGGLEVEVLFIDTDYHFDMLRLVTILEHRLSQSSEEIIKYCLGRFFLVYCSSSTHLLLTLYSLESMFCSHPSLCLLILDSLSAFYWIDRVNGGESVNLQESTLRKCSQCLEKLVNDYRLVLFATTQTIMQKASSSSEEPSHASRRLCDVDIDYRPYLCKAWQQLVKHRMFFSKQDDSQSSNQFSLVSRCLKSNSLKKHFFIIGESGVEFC
Kind of data set: bulk FRET; high FRET; RAD51B near 3' end; FA: protein in 25 mM HEPES pH 7.5, 10% glycerol, 2.5 mM MgCl2, 0.25 mM TCEP, 150 mM NaCl mixed 1:1 with oligo in HMT buffer, 50 mM NaCl (final ~100 mM NaCl, 5%). To be noted: protein: recombinant; TwinStrep-TEV on XRCC2 not cleaved; copies: 1;1;1;1; label: 3'-Cy3.

Consider TATCGAATCCGTCTA (ssDNA) [dN15nt-Cy3-3'], for which the binding result is recorded as “binds”.

For the origin of these results see article PMC7614784, “Structure and function of the RAD51B-RAD51C-RAD51D-XRCC2 tumour suppressor” (Nature, 2023).
